Read-outs that look alike come from different tables or passages of the source.
Experiments:
[1] = rat, in vivo
[2] = Biodistribution of fluorescently labeled ELP / SynB1-ELP in pregnant rats after IV bolus (ex vivo imaging, frozen sections); parameters: species or system Sprague Dawley rats
Method: FIG. 2 includes a series of images and a graph showing the biodistribution of ELP in pregnant rats. FIG. 2A. The ELP drug carrier was labeled with AlexalFluor633 and infused into normal pregnant Sprague Dawley rats by IV injection (100 mg/kg). 4 h after injection, ex vivo images of placentas, pups, and major organs were collected using an IVIS Spectrum. FIG. 2B. Fluorescence intensity was quantified in all tissues. Error bars represent the standard deviation of 3 rats.
FIG. 3 includes a series of images and a graph illustrating placental distribution of ELP and SynB1-ELP. FIG. 3A. After IV administration of fluorescently-labeled polypeptides or saline control, placentas, pups, and major organs were removed and imaged ex vivo using an IVIS Spectrum. Polypeptide deposition in placentas and pups is shown. FIG. 3B. Fluorescence levels in placentas, pups, and major organs was quantified using Living Image software. Error bars represent the standard deviation of four rats per treatment group. FIG. 3C. Frozen sections of intact placentas and pups were cut, stained with the actin-specific rhodamine-phalloidin to allow visualization of the placenta and pups, and scanned using a florescence slide scanner. FIG. 3D. The same slides were imaged using a florescence microscope to visualize the cellular localization of the polypeptides in the placenta (100× magnification).
Pregnant Sprague Dawley rats on day 14 of gestation were injected with fluorescently labeled ELP (100 mg/kg IV). […] Placentas and pups were dissected from the amniotic sacks and imaged ex vivo using an IVIS Spectrum animal imager to detect and quantitate the ELP levels. […] In contrast, almost no ELP was detectable in the pups. The image intensities of the placentas, pups, and major organs were quantitated using Living Image software, and the results are shown in FIG. 2B. […] These high ELP levels in the placenta are unprecedented with this molecule. By way of comparison, the placenta levels are 2 to 10 fold higher than the tumors levels (Bidwell G L, et al., PloS One, 2013; Bidwell G L, 3rd, Cancer Lett., 2012).
This example also examined whether the addition of a CPP to ELP would affect its penetration across the placenta. SynB1-ELP was labeled with Alexa633 and injected as described above. For comparison, animals were injected with saline control or ELP-Alexa633 at an equivalent dose. Four hours after injection, placental, fetal, and organ levels were determined by ex vivo fluorescence imaging. […] In addition to the ex vivo fluorescence imaging, the fetal-amnio-placental complex was removed, rapidly frozen, and sectioned using a cryomicrotome. Tissue sections were stained with the actin-specific rhodamine-phalloidin to allow visualization of all tissue and imaged directly using a fluorescence slide scanner. […] The intraplacental distribution SynB1-ELP-Alexa633 differed slightly from ELP-Alexa633. […] Both polypeptides could be detected within the cells of the placenta when examined microscopically (FIG. 3D).

[3] = rat, in vivo; remark: listed apart in the source
trophoblast cells = conditions: rat, in vivo
[4] = Plasma levels and biodistribution after chronic infusion by IP minipump GD14-GD19; assay type: in vivo, rats
Method: FIG. 7 includes images and graphs showing plasma levels and biodistribution of FLPs after Chronic Infusion. FIG. 7A. Rhodamine-labeled ELP or SynB1-ELP was administered chronically by IP minipump from GD14-GD19. Plasma was sampled throughout the experiment, and polypeptide levels were determined relative to standards of the injected protein. Data represent the mean±s.d. of four rats per group. FIG. 7B. Ex vivo fluorescence imaging of eight pups and corresponding placentas from one rat from each group is shown. FIG. 7C. Fluorescence intensities were quantified, corrected for autofluorescence, and fit to standards of the injected proteins. Data represent the mean±s.e. of eight placentas and eight pups per rat and four rats per group. *Statistically significant as determined by a two-way ANOVA with post-hoc Bonferroni multiple comparisons (p<0.05). **Levels were not detectable over autofluorescence.
Whether the fetal exclusion held after five days of continuous infusion of the polypeptides is also examined. ELP or SynB1-ELP was administered continuously from GD14 to GD19 using an IP minipump. […] At the dose used (30 mg/kg/day), the plasma levels were maintained at 33.94 μg/mL for ELP and 69.15 μg/mL for SynB1-ELP. These plasma levels are a reflection of many in vivo kinetic processes, including the rate of transport from the peritoneal fluid to the blood, the rate of extravasation from the blood to the tissues, and the plasma clearance rate. […] These plasma concentration data also provide useful information for the formulation of dosages when ELP is fused with therapeutic agents.
Ex vivo whole organ fluorescence analysis of the placentas is performed, pups, and organs on GD19 following five days of continuous polypeptide infusion. Relative to the acute experiment, the placental levels of the polypeptides were lower, which resulted from the difference in dose (100 mg/kg in the bolus dosing versus 30 mg/kg/day in the chronic infusion). […] The kidneys still accumulated the most polypeptide, followed by the liver and the placenta (FIG. 7C). […]

B1: ELP: elastin-like polypeptide drug carrier, repeats of VPGXG; unmodified carrier, fluorescently labeled for the tests (protein)
chain: VGVPGAGVPGGGVPGAGVPGGGVPGAGVPGGGVPGAGVPGGGVPGAGVPGGGVPGAGVPGGGVPGAGVPGGGVPGAGVPGVGVPGAGVPGGGVPGAGVPGGGVPGAGVPGGGVPGAGVPGGGVPGAGVPGGGVPGAGVPGGGVPGAGVPGGGVPGAGVPGVGVPGAGVPGGGVPGAGVPGGGVPGAGVPGGGVPGAGVPGGGVPGAGVPGGGVPGAGVPGGGVPGAGVPGGGVPGAGVPGVGVPGAGVPGGGVPGAGVPGGGVPGAGVPGGGVPGAGVPGGGVPGAGVPGGGVPGAGVPGGGVPGAGVPGGGVPGAGVPGVGVPGAGVPGGGVPGAGVPGGGVPGAGVPGGGVPGAGVPGGGVPGAGVPGGGVPGAGVPGGGVPGAGVPGGGVPGAGVPGVGVPGAGVPGGGVPGAGVPGGGVPGAGVPGGGVPGAGVPGGGVPGAGVPGGGVPGAGVPGGGVPGAGVPGGGVPGAGVPGVGVPGAGVPGGGVPGAGVPGGGVPGAGVPGGGVPGAGVPGGGVPGAGVPGGGVPGAGVPGGGVPGAGVPGGGVPGAGVPGVGVPGAGVPGGGVPGAGVPGGGVPGAGVPGGGVPGAGVPGGGVPGAGVPGGGVPGAGVPGGGVPGAGVPGGGVPGAGVPGGGVPGAGVPGGGVPGAGVPGGGVPGAGVPGGGVPGAGVPGGGVPGAGVPGGGVPGAGVPGGGVPGAGVPGGGVPGAGVPGVGVPGAGVPGGGVPGAGVPGGGVPGAGVPGGGVPGAGVPGGGVPGAGVPGGGVPGAGVPGGGVPGAGVPGGGVPGAGVPG
modifications: Alexa633 label; synthetic ELP
notes: elastin-like polypeptide drug carrier, repeats of VPGXG; unmodified carrier, fluorescently labeled for the tests
level in pups [1]: Neither peptide was detectable in the pups | placental accumulation relative to other organs ([2]; 4 h after 100 mg/kg IV): nearly equivalent to levels in the liver | level in pups, ex vivo fluorescence imaging ([2]; 4 h after 100 mg/kg IV, GD14): barely detectable over autofluorescence in the pups | placental accumulation, ex vivo fluorescence imaging ([2]; 4 h after 100 mg/kg IV, GD14): accumulated strongly in the placenta | placental accumulation, frozen sections, fluorescence slide scanner ([2]; 4 h after IV injection): accumulated at high levels in the placenta relative to autofluorescence controls | polypeptide in pups, frozen sections, fluorescence slide scanner ([2]; 4 h after IV injection): no polypeptide was detectable in the pups | intraplacental distribution ([2]; frozen sections): accumulated at high levels throughout the placenta | half-life ([2]; pregnant rats GD14, 100 mg/kg IV): Four hours after injection, which is about one half-life | total signal in degraded bands <50 kDa [3]: less than 20% | accumulation in trophoblast cells (trophoblast cells): accumulated in the cytoplasm of trophoblast cells | polypeptide in interior of chorionic villi (fetal blood) (trophoblast cells): contained no ELP or SynB1-ELP | steady state plasma level ([4]; 30 mg/kg/day IP minipump GD14-GD19): 33.94 µg/mL | placental accumulation ([4]; GD19, five days continuous infusion): accumulated at high levels in the placenta | level in pups ([4]; GD19, five days continuous infusion, 30 mg/kg/day): undetectable over autofluorescence in the pups
